Laboratory results as given in patent US20040229242, “Methods of capturing, detecting and quantifying RNA:DNA hybrids and a modified RNase H useful therein” (published 2004).
Substitutions are numbered along the chain they refer to.

Assays:
[1] = target: T1, E. coli RNase H1 D134A (nuclease-deficient parent) (Escherichia coli) (UniProt P0A7Y4); experiment: competition; conditions: 25 C
T1 sequence: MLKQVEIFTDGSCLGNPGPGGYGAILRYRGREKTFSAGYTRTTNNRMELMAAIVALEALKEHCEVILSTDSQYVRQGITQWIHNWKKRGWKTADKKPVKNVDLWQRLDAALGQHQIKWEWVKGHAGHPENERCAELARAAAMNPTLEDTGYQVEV

[2] = target: T2, RNase H1 D94G/D134A mutant (Escherichia coli, UniProt P0A7Y4 SEQ:1-155); experiment: competition; conditions: 25 C
T2 chain: T1 sequence with D94G

[3] = target: T2, RNase H1 D94G/D134A mutant; experiment: filter; 50 mM NaCl, 1 mM EDTA, HEPES pH 7.0, 25 C
[4] = target: T3, E. coli RNase H1 D134A (nuclease-deficient parent) (Escherichia coli, UniProt P0A7Y4 SEQ:1-155); experiment: FP filter; nitrocellulose filter binding; 50 mM NaCl, 1 mM EDTA, 20 mM HEPES pH 7.0, 25 C; conditions: label: 32P end label on DNA strand
T3 chain: T1 sequence
Description: In the experiment, serial dilutions of the indicated RNase H proteins were individually incubated in 1×FB Buffer [100 μg/ml BSA; 50 mM NaCl; 1 mM EDTA; 20 mM HEPES, pH 7.0] with a radiolabeled RNA:DNA hybrid of the following sequence:
After 30 minutes incubation at 25° C., the 50 μl reactions were filtered quickly through buffer-equilibrated nitrocellulose filters and washed twice with 500 μl Wash Buffer [10% Glycerol, 50 mM NaCl; 1 mM EDTA; 20 mM HEPES, pH 7.0]. […] The amount of RNA:DNA hybrid retained by each filter was directly quantitated from the damp filters by Cerenkov counting. Each protein was tested in triplicate and the results averaged. Control filters to determine total input radioactivity were used to calculate the percent of total input hybrid bound. SDS-PAGE and densitometry re-confirmed protein concentrations.

[5] = target: T3, E. coli RNase H1 D134A …; experiment: filter; 50 mM NaCl, 1 mM EDTA, HEPES pH 7.0, 25 C; conditions: label: 32P
[6] = competition vs RNA:DNA#1, filter binding
[7] = competition vs RNA:DNA#2, filter binding
[8] = competition vs RNA:DNA#3, filter binding

Work on “heat-denatured sheared salmon sperm ssDNA” yielded an IC50 [1, 6] of 1700 nM, an IC50 [1, 7] of 5500 nM and an IC50 [1, 8] of 2900 nM. For the same molecule, the IC50 [2, 6] was 9000 nM, the IC50 [2, 7] was 15000 nM and the IC50 [2, 8] was 10000 nM.

B1: RNA:DNA#1 (DNA:RNA)
RNA: GGACCGGAAAGGUACGAGCAUGUGA
DNA: TCACATGCTCGTACCTTTCCGGTCC
B1 gave a Kd ([3]; label: 32P end label on DNA strand) of 5.1 nM and a Kd [4] of 10 nM.

B2: RNA:DNA#2 (DNA:RNA)
RNA: GGCGAACAGGACUGCGUAUGAUAGG
DNA: CCTATCATACGCAGTCCTGTTCGCC
In the case of B2, the Kd ([3]; label: 32P) is reported as 6 nM and the Kd [5] is reported as 8 nM.

B3: RNA:DNA#3 (DNA:RNA)
RNA: AGUUCGACGAGCAUGGAGAGGUCAG
DNA: CTGACCTCTCCATGCTCGTCGAACT
Work on B3 yielded a Kd ([3]; label: 32P) of 5.5 nM and a Kd [5] of 8 nM.
